Data as given in paper PMC8352909.
Blank lines part the entries; values can stand above or below the substance they belong to.

Experiments:
[1] = biological target: Fc-tagged human IL-2 receptor beta subunit extracellular domain (hIL-2 Rb-Fc) (human) (UniProt P14784)
[2] = biological target: Fc-tagged human IL-2 receptor alpha subunit extracellular domain (hIL-2 Ra-Fc) (human) (UniProt P01589)
[3] = biological target: Fc-tagged human IL-2 receptor subunit alpha, extracellular domain (hIL-2 Ra-Fc) (human) (UniProt P01589)

UniProt P14784, sequence (P14784 27-240): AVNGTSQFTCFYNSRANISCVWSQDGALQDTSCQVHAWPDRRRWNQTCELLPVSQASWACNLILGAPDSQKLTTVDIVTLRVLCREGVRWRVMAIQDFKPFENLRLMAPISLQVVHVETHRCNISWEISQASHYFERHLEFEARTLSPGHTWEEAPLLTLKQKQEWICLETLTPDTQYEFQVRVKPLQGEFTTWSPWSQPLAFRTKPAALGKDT

Supplementary Table 1: βγ EC50 (nM), DiscoverX PathHunter IL-2 receptor βγ assay; row V69* [1]: 9.99 nM
Supplementary Table 1: αβγ EC50 (nM), DiscoverX PathHunter IL-2 receptor αβγ assay; row V69* [2]: 0.08 nM
Substance: IL-2 with V69 replaced with AzK, pegylated with 30 kDa mPEG (from UniProt P60568 21-153) (ligand)

Supplementary Table 1: βγ EC50 (nM), DiscoverX PathHunter IL-2 receptor βγ assay; row E62* [1]: 7.46 nM
Supplementary Table 1: αβγ EC50 (nM), DiscoverX PathHunter IL-2 receptor αβγ assay; row E62* [2]: 2.84 nM
Substance: IL-2 with E62 replaced with AzK, pegylated with 30 kDa mPEG (from UniProt P60568 21-153) (ligand)

Supplementary Table 1: βγ EC50 (nM), DiscoverX PathHunter IL-2 receptor βγ assay; row R38 [1]: 4.16 nM
Supplementary Table 1: αβγ EC50 (nM), DiscoverX PathHunter IL-2 receptor αβγ assay; row R38 [2]: 0.17 nM
Substance: IL-2 with R38 replaced with AzK, pegylated with 10 kDa mPEG (from UniProt P60568 21-153) (ligand)

Supplementary Table 1: βγ EC50 (nM), DiscoverX PathHunter IL-2 receptor βγ assay; row F42 [1]: 6.09 nM
Supplementary Table 1: αβγ EC50 (nM), DiscoverX PathHunter IL-2 receptor αβγ assay; row F42 [2]: 0.52 nM
Substance: IL-2 with F42 replaced with AzK, pegylated with 10 kDa mPEG (from UniProt P60568 21-153) (ligand)

Supplementary Table 1: βγ EC50 (nM), DiscoverX PathHunter IL-2 receptor βγ assay; row T41 [1]: 6.37 nM
Supplementary Table 1: αβγ EC50 (nM), DiscoverX PathHunter IL-2 receptor αβγ assay; row T41 [2]: 0.05 nM
Substance: IL-2 with T41 replaced with AzK, pegylated with 10 kDa mPEG (from UniProt P60568 21-153) (ligand)

Supplementary Table 1: βγ EC50 (nM), DiscoverX PathHunter IL-2 receptor βγ assay; row Y45 [1]: 9.06 nM
Supplementary Table 1: αβγ EC50 (nM), DiscoverX PathHunter IL-2 receptor αβγ assay; row Y45 [2]: 0.11 nM
Substance: IL-2 with Y45 replaced with AzK, pegylated with 10 kDa mPEG (from UniProt P60568 21-153) (ligand)

Supplementary Table 1: βγ EC50 (nM), DiscoverX PathHunter IL-2 receptor βγ assay; row E68* [1]: 7.7 nM
Supplementary Table 1: αβγ EC50 (nM), DiscoverX PathHunter IL-2 receptor αβγ assay; row E68* [2]: 0.09 nM
Substance: IL-2 with E68 replaced with AzK, pegylated with 30 kDa mPEG (from UniProt P60568 21-153) (ligand)

potency (EC50) of pSTAT5 induction in Treg cells of human PBMC, PEG size study [3]: 5450 pg/mL
Substance: IL-2 P65 AzK (replacement of proline 65 with AzK, without PEG attachment) (from UniProt P60568 21-153) (ligand)

Supplementary Table 1: βγ EC50 (nM), DiscoverX PathHunter IL-2 receptor βγ assay; row K43 [1]: 9.84 nM
Supplementary Table 1: αβγ EC50 (nM), DiscoverX PathHunter IL-2 receptor αβγ assay; row K43 [2]: 0.13 nM
Substance: IL-2 with K43 replaced with AzK, pegylated with 10 kDa mPEG (from UniProt P60568 21-153) (ligand)

Supplementary Table 1: βγ EC50 (nM), DiscoverX PathHunter IL-2 receptor βγ assay; row K35 [1]: 6.75 nM
Substance: IL-2 with K35 replaced with AzK, pegylated with 10 kDa mPEG (from UniProt P60568 21-153) (ligand)

Supplementary Table 1: βγ EC50 (nM), DiscoverX PathHunter IL-2 receptor βγ assay; row E62 [1]: 3 nM
Substance: IL-2 with E62 replaced with AzK, pegylated with 10 kDa mPEG (from UniProt P60568 21-153) (ligand)
